Reference: paper PMC8086144, “A novel peptide antagonist of the human growth hormone receptor” (The Journal of Biological Chemistry, 2021)

Columns and labels:
[1] = Stability of hGH and pegvisomant in human serum (Western blot); assay type: in vitro ADME; settings: RPMI with 25% (v/v) heat-inactivated human AB serum, 37 °C, 25 μg/ml protein, SDS-PAGE/Western blot densitometry, average of three experiments
Description: (§1) The samples were then incubated at 95 °C for 5 min before being cooled on ice and stored at −80 °C. […] Following separation, the proteins were transferred to polyvinylidine difluoride membranes and subjected to Western blot analysis (vide infra). The fraction of intact protein was quantified by measuring the integrated density of each band contained within regions of the gel corresponding to “intact” or “degraded” proteins. […] These reactions were allowed to incubate at 37 °C for up to 8 h, with samples removed at selected timepoints for analysis. Following incubation, the samples were either mixed with 5× Laemmli loading buffer and subjected to SDS-PAGE for Western blot analysis (Fig. S5) or directly injected onto a C18 reversed-phase column for analysis by HPLC as described above for the S1H peptide (Fig. S4).

[2] = biological target: T1, trypsin (bovine pancreas) (Bos taurus, UniProt P00760); assay: Trypsin degradation of hGH and pegvisomant (HPLC and Western blot); assay type: in vitro ADME; settings: 4 μg/ml trypsin in digestion buffer pH 7.8, 37 °C, up to 8 h, 25 μg/ml protein
T1 construct: purchased Sigma-Aldrich; host or cells: bovine pancreas
T1 sequence (P00760 24-246): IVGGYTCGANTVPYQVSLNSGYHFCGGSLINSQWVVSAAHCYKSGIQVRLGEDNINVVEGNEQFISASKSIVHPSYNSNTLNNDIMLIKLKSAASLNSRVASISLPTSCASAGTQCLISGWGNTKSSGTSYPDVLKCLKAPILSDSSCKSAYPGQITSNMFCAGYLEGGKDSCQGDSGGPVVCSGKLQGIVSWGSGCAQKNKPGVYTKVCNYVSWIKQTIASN
Description: as §1

hPRLR = biological target: T2, hPRLR (Homo sapiens, UniProt P16471); assay: hGH-mediated pSTAT5 in T84 cells, Western blot; assay type: cell-based; settings: 50 nM inhibitor with 2.5 nM hGH, 20 min
T2 construct: T84 cells express high levels of hPRLR relative to hGHR (>1300:1); host or cells: T84 (human colon cancer), MALME-3M (human melanoma)
T2 sequence (P16471 25-622): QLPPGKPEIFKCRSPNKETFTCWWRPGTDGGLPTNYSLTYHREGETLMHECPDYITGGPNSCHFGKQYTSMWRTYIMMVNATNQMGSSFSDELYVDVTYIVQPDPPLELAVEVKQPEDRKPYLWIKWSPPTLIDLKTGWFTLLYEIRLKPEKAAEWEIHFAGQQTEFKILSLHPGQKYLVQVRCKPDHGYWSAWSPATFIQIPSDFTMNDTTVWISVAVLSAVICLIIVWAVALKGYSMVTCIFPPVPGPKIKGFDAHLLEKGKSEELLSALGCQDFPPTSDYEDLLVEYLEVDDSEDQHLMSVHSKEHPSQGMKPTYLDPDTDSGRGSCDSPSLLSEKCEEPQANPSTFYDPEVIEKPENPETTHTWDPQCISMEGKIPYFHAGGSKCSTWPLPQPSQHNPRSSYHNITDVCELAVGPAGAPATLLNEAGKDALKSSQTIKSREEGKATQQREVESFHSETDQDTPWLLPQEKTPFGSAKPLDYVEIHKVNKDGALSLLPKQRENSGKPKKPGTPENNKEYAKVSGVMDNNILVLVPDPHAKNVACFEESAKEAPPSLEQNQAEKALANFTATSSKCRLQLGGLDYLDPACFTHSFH
Description: SK-MEL-28, MALME-3M, and T84 cells were grown and maintained in Eagle's Minimal Essential Medium. IM9 and L cells were grown in RPMI-1640 media and Dulbecco's modified Eagle's medium, respectively. All growth media was supplemented with 10% fetal bovine serum and 1× antibiotic-antimycotic […] solution. Cells were grown at 37 °C under a 5% CO2 atmosphere in a humidified incubator, and growth media was replaced every 48 h during incubation. No hGH was present in or added to the growth media unless specifically indicated. […]
Following treatment, the cells were harvested at the indicated time points, and the total protein was extracted. […] Sample protein concentration was quantified using a Bradford assay with bovine serum albumin as the protein standard. Absorbance at 595 nm was measured using a Spectramax 250 multimode plate reader (Molecular Devices) and processed using SoftmaxPro v4.7.1 software.
Cytosolic fractions from treated cells were thawed on ice, and 80 μg protein was loaded onto polyacrylamide gels for separation by SDS-PAGE. […] Chemiluminescence signals were detected using a GelDoc (BioRad) fluorescence imager. […] Percent inhibition was then measured by subtracting the pSTAT5 band intensity in each lane from the pSTAT5 band intensity of hGH-treated samples. […]

[3] = biological target: human growth hormone receptor (human (endogenous in SK-MEL-28, MALME-3M, IM9)) (UniProt P10912)
human growth hormone receptor (human (endogenous in SK-MEL-28, MALME-3M, IM9)), sequence (P10912 19-638): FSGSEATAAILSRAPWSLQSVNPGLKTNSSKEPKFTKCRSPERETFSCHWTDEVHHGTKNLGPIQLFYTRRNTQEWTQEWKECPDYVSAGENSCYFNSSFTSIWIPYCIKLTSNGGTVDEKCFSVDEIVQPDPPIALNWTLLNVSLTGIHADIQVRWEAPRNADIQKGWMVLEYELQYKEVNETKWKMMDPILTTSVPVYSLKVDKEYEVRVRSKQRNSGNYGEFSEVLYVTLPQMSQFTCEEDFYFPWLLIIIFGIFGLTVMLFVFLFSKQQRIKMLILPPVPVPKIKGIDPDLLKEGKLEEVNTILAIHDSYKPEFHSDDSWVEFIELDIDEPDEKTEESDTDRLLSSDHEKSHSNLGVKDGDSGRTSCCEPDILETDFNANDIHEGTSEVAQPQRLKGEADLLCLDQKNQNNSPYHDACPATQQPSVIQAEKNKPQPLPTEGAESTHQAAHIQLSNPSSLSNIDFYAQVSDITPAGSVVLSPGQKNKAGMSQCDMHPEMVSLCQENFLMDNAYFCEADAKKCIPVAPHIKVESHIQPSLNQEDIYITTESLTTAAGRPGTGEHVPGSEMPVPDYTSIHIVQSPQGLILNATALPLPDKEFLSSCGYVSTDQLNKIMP

[4] = biological target: T3, mouse GHR (mouse (endogenous in L fibroblasts)) (UniProt P16882)
T3 sequence: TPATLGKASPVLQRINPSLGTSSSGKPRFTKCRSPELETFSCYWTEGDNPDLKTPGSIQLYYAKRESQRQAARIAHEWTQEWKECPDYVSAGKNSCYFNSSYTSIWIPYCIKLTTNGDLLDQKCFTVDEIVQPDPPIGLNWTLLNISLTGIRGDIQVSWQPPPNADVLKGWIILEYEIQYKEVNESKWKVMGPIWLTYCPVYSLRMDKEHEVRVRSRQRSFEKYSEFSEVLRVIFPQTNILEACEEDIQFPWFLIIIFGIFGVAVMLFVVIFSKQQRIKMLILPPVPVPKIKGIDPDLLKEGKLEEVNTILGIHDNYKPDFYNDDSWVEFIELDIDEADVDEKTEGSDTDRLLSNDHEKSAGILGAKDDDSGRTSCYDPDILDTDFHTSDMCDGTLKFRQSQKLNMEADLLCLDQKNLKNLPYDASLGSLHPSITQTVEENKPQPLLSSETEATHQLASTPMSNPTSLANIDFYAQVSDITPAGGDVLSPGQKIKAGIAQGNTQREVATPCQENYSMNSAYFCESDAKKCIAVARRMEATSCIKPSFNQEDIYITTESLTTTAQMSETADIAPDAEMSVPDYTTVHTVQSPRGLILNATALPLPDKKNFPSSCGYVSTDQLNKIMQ

[5] = biological target: human growth hormone receptor (human (endogenous in SK-MEL-28, MALME-3M, IM9)) (UniProt P10912); remark: listed apart in the source
[6] = biological target: T4, human prolactin receptor (human (endogenous in T84, MALME-3M)) (UniProt P16471)
T4 sequence: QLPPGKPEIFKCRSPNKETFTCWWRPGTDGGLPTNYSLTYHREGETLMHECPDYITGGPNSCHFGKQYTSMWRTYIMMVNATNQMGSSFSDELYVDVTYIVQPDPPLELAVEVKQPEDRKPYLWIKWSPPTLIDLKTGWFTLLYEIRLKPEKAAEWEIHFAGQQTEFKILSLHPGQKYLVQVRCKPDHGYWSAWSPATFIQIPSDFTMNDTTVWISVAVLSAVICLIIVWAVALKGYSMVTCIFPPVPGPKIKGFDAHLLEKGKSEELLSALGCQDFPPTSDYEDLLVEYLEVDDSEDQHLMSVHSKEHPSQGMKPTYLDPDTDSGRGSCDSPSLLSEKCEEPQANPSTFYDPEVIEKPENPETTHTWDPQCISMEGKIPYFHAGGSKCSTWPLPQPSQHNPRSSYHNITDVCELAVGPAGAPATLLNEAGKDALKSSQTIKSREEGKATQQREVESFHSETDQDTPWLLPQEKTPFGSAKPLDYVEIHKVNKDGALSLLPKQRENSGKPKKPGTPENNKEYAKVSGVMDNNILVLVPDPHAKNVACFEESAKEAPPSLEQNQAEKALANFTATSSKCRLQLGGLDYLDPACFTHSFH

Molecule: pegvisomant [reference compound]
- protein remaining intact after 48 h in human serum [1]: 76%
- time to full degradation by trypsin [2]: 4 h
- suppression of hGH-mediated phosphorylation of STAT5 (hPRLR): 27%

Molecule: Ac-YIPKEQKYSFLQNPQT-NH2 [S1H peptide (site 1-binding helix)]
- suppression of hGH-mediated pSTAT5 (Western blot) in IM9 cells co-treated with 2.5 nM hGH and 200 nM S1H; pair blocked: hGH with hGHR [3]: 67%
- suppression of hGH-mediated pSTAT5 (Western blot) in MALME-3M cells co-treated with 2.5 nM hGH and 200 nM S1H; pair blocked: hGH with hGHR [3]: 56%
- suppression of hGH-mediated pSTAT5 (Western blot) in SK-MEL-28 cells co-treated with 2.5 nM hGH and S1H, 100 nM (46%) to 200 nM (67%); pair blocked: hGH with hGHR [3]: 67%
- suppression of hGH-mediated pSTAT5 (Western blot) in mouse L fibroblasts co-treated with GH and 200 nM S1H; pair blocked: GH with the GHR of the L cells [4]: 36%
- inhibition of hGH-induced pSTAT5 (Western blot) in MALME-3M cells treated with 2.5 nM hGH and 50 nM S1H; pair blocked: hGH with hGHR [5]: 40%
- inhibition of hPRL-induced pSTAT5 (Western blot) in MALME-3M cells treated with 2.5 nM hPRL and S1H; pair blocked: hPRL with hPRLR [6]: 49%
